Measured values reported in article PMC10371073.

B1: Fused in Sarcoma (FUS), endogenous wild type [human (endogenous in HEK293 and human fibroblasts)] / DNA Ligase IIIα (Lig3), mitochondrial form mtLig3 [human (endogenous in HEK293 and human fibroblasts)] (parent)
chain 1: MASNDYTQQATQSYGAYPTQPGQGYSQQSSQPYGQQSYSGYSQSTDTSGYGQSSYSSYGQSQNTGYGTQSTPQGYGSTGGYGSSQSSQSSYGQQSSYPGYGQQPAPSSTSGSYGSSSQSSSYGQPQSGSYSQQPSYGGQQQSYGQQQSYNPPQGYGQQNQYNSSSGGGGGGGGGGNYGQDQSSMSSGGGSGGGYGNQDQSGGGGSGGYGQQDRGGRGRGGSGGGGGGGGGGYNRSSGGYEPRGRGGGRGGRGGMGGSDRGGFNKFGGPRDQGSRHDSEQDNSDNNTIFVQGLGENVTIESVADYFKQIGIIKTNKKTGQPMINLYTDRETGKLKGEATVSFDDPPSAKAAIDWFDGKEFSGNPIKVSFATRRADFNRGGGNGRGGRGRGGPMGRGGYGGGGSGGGGRGGFPSGGGGGGGQQRAGDWKCPNPTCENMNFSWRNECNQCKAPKPDGPGGGPGGSHMGGNYGDDRRGGRGGYDRGGYRGRGGDRGGFRGGRGGGDRGGFGPGKMDSRGEHRQDRRERPY
chain 2: LLHGHPLFLRRKPVLSFQGSHLRSRATYLVFLPGLHVGLCSGPCEMAEQRFCVDYAKRGTAGCKKCKEKIVKGVCRIGKVVPNPFSESGGDMKEWYHIKCMFEKLERARATTKKIEDLTELEGWEELEDNEKEQITQHIADLSSKAAGTPKKKAVVQAKLTTTGQVTSPVKGASFVTSTNPRKFSGFSAKPNNSGEAPSSPTPKRSLSSSKCDPRHKDCLLREFRKLCAMVADNPSYNTKTQIIQDFLRKGSAGDGFHGDVYLTVKLLLPGVIKTVYNLNDKQIVKLFSRIFNCNPDDMARDLEQGDVSETIRVFFEQSKSFPPAAKSLLTIQEVDEFLLRLSKLTKEDEQQQALQDIASRCTANDLKCIIRLIKHDLKMNSGAKHVLDALDPNAYEAFKASRNLQDVVERVLHNAQEVEKEPGQRRALSVQASLMTPVQPMLAEACKSVEYAMKKCPNGMFSEIKYDGERVQVHKNGDHFSYFSRSLKPVLPHKVAHFKDYIPQAFPGGHSMILDSEVLLIDNKTGKPLPFGTLGVHKKAAFQDANVCLFVFDCIYFNDVSLMDRPLCERRKFLHDNMVEIPNRIMFSEMKRVTKALDLADMITRVIQEGLEGLVLKDVKGTYEPGKRHWLKVKKDYLNEGAMADTADLVVLGAFYGQGSKGGMMSIFLMGCYDPGSQKWCTVTKCAGGHDDATLARLQNELDMVKISKDPSKIPSWLKVNKIYYPDFIVPDPKKAAVWEITGAEFSKSEAHTADGISIRFPRCTRIRDDKDWKSATNLPQLKELYQLSKEKADFTVVAGDEGSSTTGGSSEENKGPSGSAVSRKAPSKPSASTKKAEGKLSNSNSKDGNMQTAKPSAMKVGEKLATKSSPVKVGEKRKAADETLCQTKVLLDIFTGVRLYLPPSTPDFSRLRRYFVAFDGDLVQEFDMTSATHVLGSRDKNPAAQQVSPEWIWACIRKRRLVAPC

Variants of: B1
Assay: proximity ligation assay (PLA) in control and patient derived fibroblasts
Details: with DNA Ligase IIIα (Lig3), GO treatment (100ng/ml for 1 hr) per legend, the box plot does not say whether control or GO-treated cells were counted, parent: 64, read off a plot

Variant | response (PLA foci/cell)
chain 1 P525L | 20
chain 1 R521H | 19
